Data published in article PMC10477244.

Biological target: SARS-CoV-2 virus particles (spike presumed target) (SARS-CoV-2 (isolate not in material)) (UniProt P0DTC2)

Sequence | binding signal [A450]
GGTATTGAGGGTCGCATCGTAATAGCGCATGTTGTGAGGCAGGCGCGAATCAGCTCGTGAGATGGCTCTAACTCTCCTCT [aptamer T (Apt@T2)] | 0.74
GGTATTGAGGGTCGCATCGTTACTGGACCAAACAGCACAAAGGACGCCCATAAACCCGGATGGCTCTAACTCTCCTCT [aptamer R (Apt@R2)] | 0.83
